Read-outs that look alike come from different tables or passages of the source.
Key:
[1] = target: T1, mAng2; test: competition ELISA, blocking of mAng2 binding to mTie2
T1 construct: also called mouse Ang2
T1 chain: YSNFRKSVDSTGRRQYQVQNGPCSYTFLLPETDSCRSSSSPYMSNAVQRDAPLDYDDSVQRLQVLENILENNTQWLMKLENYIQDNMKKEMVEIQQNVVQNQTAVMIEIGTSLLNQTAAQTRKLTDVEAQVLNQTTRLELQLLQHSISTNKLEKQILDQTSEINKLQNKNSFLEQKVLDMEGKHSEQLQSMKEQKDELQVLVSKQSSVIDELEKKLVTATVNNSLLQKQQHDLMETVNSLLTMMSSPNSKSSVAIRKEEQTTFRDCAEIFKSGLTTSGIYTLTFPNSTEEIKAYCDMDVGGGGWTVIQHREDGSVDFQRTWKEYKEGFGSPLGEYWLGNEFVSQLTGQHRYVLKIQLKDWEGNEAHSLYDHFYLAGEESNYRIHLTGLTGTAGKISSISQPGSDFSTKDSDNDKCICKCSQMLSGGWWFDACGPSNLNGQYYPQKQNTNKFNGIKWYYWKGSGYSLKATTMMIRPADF

[2] = target: T2, hAng2; test: competition ELISA, blocking of hAng2 binding to hTie2
T2 construct: also called human Ang2
T2 chain: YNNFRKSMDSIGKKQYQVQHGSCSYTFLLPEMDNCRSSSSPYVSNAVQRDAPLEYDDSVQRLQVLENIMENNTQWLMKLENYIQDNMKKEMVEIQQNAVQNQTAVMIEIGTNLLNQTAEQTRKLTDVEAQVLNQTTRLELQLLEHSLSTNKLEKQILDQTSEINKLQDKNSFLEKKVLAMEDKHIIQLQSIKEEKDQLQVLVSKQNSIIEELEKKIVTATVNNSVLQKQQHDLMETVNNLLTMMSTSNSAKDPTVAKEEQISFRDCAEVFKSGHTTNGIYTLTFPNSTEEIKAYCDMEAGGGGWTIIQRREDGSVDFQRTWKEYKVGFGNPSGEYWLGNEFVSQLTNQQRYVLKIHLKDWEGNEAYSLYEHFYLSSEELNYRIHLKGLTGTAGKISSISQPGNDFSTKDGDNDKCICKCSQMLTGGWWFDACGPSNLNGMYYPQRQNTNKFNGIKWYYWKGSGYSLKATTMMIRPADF

[3] = target: T3, cAng2 (cynomolgus monkey); test: competition ELISA, blocking of cAng2 binding to cTie2
T3 construct: also called cyno Ang2

[4] = target: T1, mAng2; test: competition ELISA, blocking of mAng2 binding to mTie2
[5] = target: T2, hAng2; test: competition ELISA, blocking of hAng2 binding to hTie2
[6] = target: T4, recombinant human VEGF165 (human, UniProt P15692-4 27-191); test: Biacore, periplasmic extract on hVEGF165 chip
T4 construct: also called hVEGF165; rhVEGF165
Target sequence in this assay (P15692 other isoform, or with tags, fused parts or gaps limits assumed): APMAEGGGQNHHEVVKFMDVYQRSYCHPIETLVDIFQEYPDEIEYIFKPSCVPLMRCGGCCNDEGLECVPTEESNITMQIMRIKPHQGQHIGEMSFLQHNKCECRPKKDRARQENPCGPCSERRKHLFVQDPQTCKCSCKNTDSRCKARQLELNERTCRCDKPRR

[7] = target: T4, recombinant human VEGF165; test: Biacore, periplasmic extract on hVEGF165 chip, two phase decay fit
Target sequence in this assay (P15692 other isoform, or with tags, fused parts or gaps limits assumed): as above

[8] = target: T4, recombinant human VEGF165; test: SPR Biacore T100, hVEGF165 on chip, Two State Reaction model
Experimental: (§1) Samples are injected for 2 min and allowed to dissociate up to 20 min at a flow rate of 45 μI/min. In between sample injections, the chip surface is regenerated with 100 mM HCl. HBS-EP+(Hepes buffer pH7.4+EDTA) is used as running buffer. Binding curves are fitted using a Two State Reaction model by Biacore T100 Evaluation Software v2.0.1.
(§2) ^{(a)}Heterogeneous binding curve resulting in no 1:1 fit, curves are fitted using a Two State Reaction model by Biacore T100 Evaluation Software v2.0.1

[9] = target: T4, recombinant human VEGF165; test: hVEGF165/hVEGFR1-Fc competition AlphaScreen
Experimental: (§3) Finally, streptavidin donor beads (20 μg/ml) are added and after 1 hour of incubation in the dark, fluorescence is measured on the Envision microplate reader.

[10] = target: T4, recombinant human VEGF165; test: kd1; SPR Biacore T100, hVEGF165 on chip, Two State Reaction model
Experimental: as §1, §2

[11] = target: VEGF; test: cell-based or functional assay
[12] = target: T4, recombinant human VEGF165; test: ka1; SPR Biacore T100, hVEGF165 on chip, Two State Reaction model
Experimental: as §1, §2

[13] = target: T5, recombinant mouse VEGF164 (mouse, UniProt Q00731-2 27-190); test: binding ELISA, coated rmVEGF164
T5 construct: biotinylated in the mVEGFR2 AlphaScreen; also called rmVEGF164; mVEGF164
T5 sequence (looked up): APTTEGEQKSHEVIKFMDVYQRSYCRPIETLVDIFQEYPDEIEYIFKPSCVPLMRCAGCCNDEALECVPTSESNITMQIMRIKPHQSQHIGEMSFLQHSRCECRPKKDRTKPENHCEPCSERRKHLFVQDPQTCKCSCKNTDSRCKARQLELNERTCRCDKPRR
Experimental: Cross-reactivity to mouse VEGF164 is determined using a binding ELISA. […] Wells are blocked with a casein solution (1% in PBS). […] A mouse VEGF164 reactive mAb is included as positive control.

[14] = target: T4, recombinant human VEGF165; test: hVEGF165/hVEGFR2-Fc competition AlphaScreen
Experimental: as §3

[15] = target: T4, recombinant human VEGF165; test: binding ELISA, coated rhVEGF165
[16] = target: T4, recombinant human VEGF165; test: hVEGF165/hVEGFR2-Fc competition ELISA
[17] = target: T6, recombinant human VEGF121 (human, UniProt P15692-9 27-147); test: binding ELISA, coated rhVEGF121
T6 construct: also called rhVEGF121; hVEGF121
T6 sequence (looked up): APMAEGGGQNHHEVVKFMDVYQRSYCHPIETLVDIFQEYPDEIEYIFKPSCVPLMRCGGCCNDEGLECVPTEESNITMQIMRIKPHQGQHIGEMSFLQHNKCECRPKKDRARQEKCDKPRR
Experimental: Binding to recombinant human VEGF121 is assessed via a solid phase binding ELISA. Briefly, recombinant human VEGF121 (R&D Systems, Minneapolis, Minn., USA) is coated overnight at 4° C. at 1 μg/mL in a 96-well MaxiSorp plate (Nunc, Wiesbaden, Germany). Wells are blocked with a casein solution (1% in PBS).

[18] = target: T4, recombinant human VEGF165; test: hVEGF165/hVEGFR1-Fc competition ELISA
[19] = target: T7, human VEGF-C (human, UniProt P49767 103-227); test: solid phase binding ELISA
T7 construct: also called hVEGF-C
T7 sequence (looked up): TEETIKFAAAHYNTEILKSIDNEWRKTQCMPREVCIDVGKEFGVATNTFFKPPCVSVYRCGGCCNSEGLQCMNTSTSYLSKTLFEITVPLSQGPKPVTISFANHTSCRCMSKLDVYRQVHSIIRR
Experimental: (§4) Binding to VEGFB, VEGFC, VEGFD and PIGF is assessed via a solid phase binding ELISA. In brief, VEGFB, VEGFC, VEGFD and PIGF (R&D Systems, Minneapolis, Minn., USA) are coated overnight at 4° C. at 1 μg/mL in a 96-well MaxiSorp plate (Nunc, Wiesbaden, Germany). Wells are blocked with a casein solution (1% in PBS). […] As positive controls serial dilutions of the appropriate receptors are taken along and detected with horseradish peroxidase (HRP)-conjugated goat anti-human IgG, Fc specific antibody (Jackson Immuno Research Laboratories Inc., West Grove, Pa., USA) and a subsequent enzymatic reaction in the presence of the substrate TMB (3,3′,5,5′-tetramentylbenzidine) (Pierce, Rockford, Ill., USA).

[20] = target: T8, human VEGF-D (human, UniProt O43915 93-201); test: solid phase binding ELISA
T8 construct: also called hVEGF-D
T8 sequence (looked up): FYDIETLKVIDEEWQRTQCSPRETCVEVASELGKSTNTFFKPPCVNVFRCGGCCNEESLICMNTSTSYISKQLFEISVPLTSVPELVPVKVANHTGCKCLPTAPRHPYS
Experimental: as §4

[21] = target: T9, human VEGF-B (human, UniProt P49765-2 22-188, limits assumed); test: solid phase binding ELISA
T9 construct: also called hVEGF-B
T9 sequence (looked up): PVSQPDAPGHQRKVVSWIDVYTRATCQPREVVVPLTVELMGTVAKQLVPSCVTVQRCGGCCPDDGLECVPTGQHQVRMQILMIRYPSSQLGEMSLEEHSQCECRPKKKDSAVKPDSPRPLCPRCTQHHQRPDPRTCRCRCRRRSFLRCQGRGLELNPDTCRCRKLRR
Experimental: as §4

[22] = target: T10, human PIGF (human, UniProt P49763-2 21-149, limits assumed); test: solid phase binding ELISA
T10 construct: also called hPIGF; PLGF
T10 sequence (looked up): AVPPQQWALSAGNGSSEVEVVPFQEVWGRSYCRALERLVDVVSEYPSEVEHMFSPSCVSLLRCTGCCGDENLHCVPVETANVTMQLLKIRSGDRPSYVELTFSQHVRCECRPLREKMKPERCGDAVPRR
Experimental: as §4

B1: ANGBII00005 (VHH)
bivalent VHH: EVQLVESGGGLVQAGGSLRLSCAASGFTLDDYAIGWFRQAPGKEREGVSSIRDNDGSTYYADSVKGRFTISSDNDKNTVYLQMNSLKPEDTAVYYCAAVPAGRLRFGEQWYPLYEYDAWGQGTLVTVSSGGGGSGGGGSGGGGSGGGGSGGGGSGGGGSGGGGSGGGGSEVQLVESGGGLVQAGGSLRLSCAASGFTLDDYAIGWFRQAPGKEREGVSSIRDNDGSTYYADSVKGRFTISSDNDKNTVYLQMNSLKPEDTAVYYCAAVPAGRLRFGEQWYPLYEYDAWGQGTLVTVSS
notes: homodimeric anti-Ang2 VHH; also called 00027-40gs-00027
In the case of B1, the “IC50 (read off the curve)” value [1] is reported as roughly 0.03 nM and the “IC50 (read off the curve)” value [2] is reported as roughly 0.01 nM.

B2: ANGBII00001 (VHH)
bivalent VHH: EVQLVESGGGLVQAGGSLRLSCAASGFTFDDYALGWFRQAAGKEREGVSCIRCSDGSTYYADSVKGRFTISSDNAKNTVYLQMNSLKPEDTAVYYCAASIVPRSKLEPYEYDAWGQGTLVTVSSGGGGSGGGSEVQLVESGGGLVQAGGSLRLSCAASGFTFDDYALGWFRQAAGKEREGVSCIRCSDGSTYYADSVKGRFTISSDNAKNTVYLQMNSLKPEDTAVYYCAASIVPRSKLEPYEYDAWGQGTLVTVSS
notes: homodimeric anti-Ang2 VHH; also called 1D01-9gs-1D01
B2 was tested, and the “IC50 (read off the curve)” value [3] was roughly 0.03 nM, the “IC50 (read off the curve)” value [4] was roughly 0.02 nM and the “IC50 (read off the curve)” value [5] was roughly 0.01 nM.

B3: VEGFBII24C04 (VHH)
VHH: EVQLVESGGGLVQPGDSLKLSCVASGRTSSSYSMGWFRQAQGKEREFVVAISSGGYIYDSVSLQGRFTISRDNTKNTVYLQTPSLKPEDTAVYYCAASRAYGSSRLRLADTYDYWGQGTQVTVSS
notes: also called VEGFBII24C4
With B3 the “Binding level (RU)” value [6] was 456 RU, the “% fast” value [7] was 17% and the Kd [8] was 0.4 nM. For the same binder, the kd2 [8] was 9.6e-05 s⁻¹, the “% inhibition” value [9] was 53% and the IC50 [9] was 0.2 nM. The koff [10] was 0.026 s⁻¹, the “% inhibition, VEGF HUVEC proliferation assay” value [11] was 79% and the “IC50 (nM), VEGF HUVEC proliferation assay” value [11] was 3.8 nM. For the same binder, the kon [12] was 320000 M⁻¹ s⁻¹, the binding result [13] was “no binding (tested: 500 nM-32 pM)” and the “% inhibition” value [14] was 100%. For the same binder, the IC50 [14] was 0.25 nM, the EC50 [15] was 0.453 nM and the “% inhibition” value [16] was 100%. The IC50 [16] was 2.5 nM, the EC50 [17] was 0.792 nM and the “% inhibition” value [18] was 71%. The IC50 [18] was 0.8 nM, the binding result [19] was “no binding (tested: 500 nM-32 pM)” and the binding result [20] was “no binding (tested: 500 nM-32 pM)”. B3: no binding (tested: 500 nM-32 pM) [21]; no binding (tested: 500 nM-32 pM) [22].

B4: 1D01 (VHH)
VHH: EVQLVESGGGLVQAGGSLRLSCAASGFTFDDYALGWFRQAAGKEREGVSCIRCSDGSTYYADSVKGRFTISSDNAKNTVYLQMNSLKPEDTAVYYCAASIVPRSKLEPYEYDAWGQGTQVTVSS
notes: also called 01D01
In the case of B4, the “IC50 (read off the curve)” value [3] is reported as roughly 8 nM, the “IC50 (read off the curve)” value [4] is reported as roughly 20 nM and the “IC50 (read off the curve)” value [5] is reported as roughly 10 nM.

From patent publication US20170247475A1 (Boehringer Ingelheim, published 2017)
